Reference: patent US20210292385A1 (WNTRX PHARMACEUTICALS, published 2021)
Bridge positions count the residues as written; N and C are the ends. Square brackets hold non-standard residues; d marks the D form. 2Nal = N[C@@H](Cc1ccc2ccccc2c1)C(=O)O; S5 = C=CCCC[C@](C)(N)C(=O)O; βAla = NCCC(=O)O

Assays:
[1] = molecular target: β-catenin protein (ALPHA screening assay) (UniProt P35222); test: ALPHA screen: biotinylated peptide on streptavidin donor beads, β-catenin on protein A acceptor beads via anti-β-catenin antibody
[2] = molecular target: T1, β-catenin in cells (LEF/TCF-bla HCT-116 reporter cells; Colo320DM cells) (UniProt P35222 2-781, limits assumed); test: cell-based or functional assay
T1 sequence (looked up): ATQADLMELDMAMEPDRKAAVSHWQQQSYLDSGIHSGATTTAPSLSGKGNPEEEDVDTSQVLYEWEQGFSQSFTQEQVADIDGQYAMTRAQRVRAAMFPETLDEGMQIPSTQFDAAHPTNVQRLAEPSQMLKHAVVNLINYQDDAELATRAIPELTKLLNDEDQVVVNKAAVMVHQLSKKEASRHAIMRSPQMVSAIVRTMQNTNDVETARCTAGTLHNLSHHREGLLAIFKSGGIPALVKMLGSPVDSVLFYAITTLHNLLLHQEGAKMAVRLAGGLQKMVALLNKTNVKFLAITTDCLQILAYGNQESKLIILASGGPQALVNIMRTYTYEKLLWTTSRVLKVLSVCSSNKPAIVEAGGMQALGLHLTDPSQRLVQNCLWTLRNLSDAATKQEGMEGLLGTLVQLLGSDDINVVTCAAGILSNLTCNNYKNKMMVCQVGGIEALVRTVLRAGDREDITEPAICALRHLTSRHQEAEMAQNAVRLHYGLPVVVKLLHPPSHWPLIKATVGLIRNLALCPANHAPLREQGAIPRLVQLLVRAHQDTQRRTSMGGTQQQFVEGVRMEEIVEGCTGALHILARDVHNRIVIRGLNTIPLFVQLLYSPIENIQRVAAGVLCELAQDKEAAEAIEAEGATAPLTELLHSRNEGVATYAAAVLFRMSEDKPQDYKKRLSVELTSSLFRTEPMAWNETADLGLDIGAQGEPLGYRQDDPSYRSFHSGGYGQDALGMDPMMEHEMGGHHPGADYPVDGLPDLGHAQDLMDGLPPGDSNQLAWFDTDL

[3] = molecular target: T2, β-catenin protein (ALPHA screening assay) (UniProt P35222 1-781, limits assumed); test: ALPHA screen: biotinylated peptide on streptavidin donor beads, β-catenin on protein A acceptor beads via anti-β-catenin antibody
T2 sequence (looked up): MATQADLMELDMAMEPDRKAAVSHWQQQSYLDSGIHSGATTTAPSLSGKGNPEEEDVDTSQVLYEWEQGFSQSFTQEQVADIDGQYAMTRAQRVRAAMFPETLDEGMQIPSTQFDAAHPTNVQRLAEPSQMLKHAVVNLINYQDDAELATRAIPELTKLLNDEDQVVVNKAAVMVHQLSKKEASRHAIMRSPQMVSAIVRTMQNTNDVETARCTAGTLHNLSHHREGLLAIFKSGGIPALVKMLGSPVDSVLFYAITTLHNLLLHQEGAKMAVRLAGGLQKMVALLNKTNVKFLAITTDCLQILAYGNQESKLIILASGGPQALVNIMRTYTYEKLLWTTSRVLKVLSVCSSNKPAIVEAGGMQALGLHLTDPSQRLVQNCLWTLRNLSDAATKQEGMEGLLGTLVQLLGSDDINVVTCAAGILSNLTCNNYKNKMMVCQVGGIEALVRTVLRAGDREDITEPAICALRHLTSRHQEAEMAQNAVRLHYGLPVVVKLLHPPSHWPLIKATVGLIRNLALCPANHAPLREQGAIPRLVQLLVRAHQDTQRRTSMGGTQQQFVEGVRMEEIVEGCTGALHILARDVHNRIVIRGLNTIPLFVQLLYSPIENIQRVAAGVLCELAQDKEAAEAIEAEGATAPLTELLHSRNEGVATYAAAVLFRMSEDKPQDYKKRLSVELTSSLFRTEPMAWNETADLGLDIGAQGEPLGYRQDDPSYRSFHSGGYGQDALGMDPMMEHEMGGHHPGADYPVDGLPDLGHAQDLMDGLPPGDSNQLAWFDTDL

[4] = molecular target: T1, β-catenin in cells (LEF/TCF-bla HCT-116 …); test: cell-based or functional assay; remark: listed apart in the source
[5] = molecular target: T3, Histidine-tagged β-catenin (HTRF assay) (UniProt P35222 1-781, limits assumed); test: HTRF assay (Cisbio): biotin-labeled peptide, His-tagged β-catenin, Eu-labeled anti-His antibody and SA-XL665
T3 construct: also called His-tag protein; not shown: histidine tag
T3 sequence (looked up): T2 sequence (looked up)

## full-length HD2 domain of human BCL9 protein (peptide)
[1]
  Kd: 20 nM
  signal versus background ratio: 180 fold

B1: WX-020 (peptide)
peptide: Ac-LR[S5]IQR[S5]L-NH2
modifications: staple 3-7
SMILES: CC[C@H](C)[C@@H]1NC(=O)[C@@](C)(NC(=O)[C@H](CCCNC(=N)N)NC(=O)[C@H](CC(C)C)NC(C)=O)CCCC=CCCC[C@@](C)(C(=O)N[C@@H](CC(C)C)C(N)=O)NC(=O)[C@H](CCCNC(=N)N)NC(=O)[C@H](CCC(N)=O)NC1=O
[2]
  IC50, CellTiterGlo cell viability assay, Colo320DM cells: 12400 nM
  IC50, Wnt transcription assay (GeneBLAzer reporter, procedures of Example 4.1): 1580 nM

B2: WX-021 (peptide)
peptide: Ac-LR[S5]IQR[S5]L[2Nal][βAla][βAla]-NH2
modifications: staple 3-7
SMILES: CC[C@H](C)[C@@H]1NC(=O)[C@@](C)(NC(=O)[C@H](CCCNC(=N)N)NC(=O)[C@H](CC(C)C)NC(C)=O)CCCC=CCCC[C@@](C)(C(=O)N[C@@H](CC(C)C)C(=O)N[C@@H](Cc2ccc3ccccc3c2)C(=O)NCCC(=O)NCCC(N)=O)NC(=O)[C@H](CCCNC(=N)N)NC(=O)[C@H](CCC(N)=O)NC1=O
[2]
  IC50, GeneBLAzer beta-lactamase reporter assay, LEF/TCF-bla HCT-116 cells: 764 nM

B3: WX-020, biotinylated (ALPHA screen) (peptide)
peptide: Ac-LR[S5]IQR[S5]L-NH2
modifications: staple 3-7; also: biotinylated with a PEG linker, site not given here
notes: The general description of the ALPHA assay says that a biotinylated polypeptide is used
[3]
  Kd: 80 nM

B4: WX-024 (peptide)
peptide: Ac-LQTLR[S5]IQR[S5]L[2Nal]-NH2
modifications: staple 6-10; also: tested as trifluoroacetic, acetate and hydrochloric salts
[4]
  IC50, GeneBLAzer beta-lactamase reporter assay, LEF-TCF-bla HCT116 cells: 191 nM
[2]
  IC50, cell-based Wnt transcription inhibition assay, acetate salt form of WX-024: 292 nM
  IC50, cell-based Wnt transcription inhibition assay, hydrochloric salt of WX-024: 313 nM

B5: WX-024 (conjugated with biotin) (peptide)
peptide: Ac-LQTLR[S5]IQR[S5]L[2Nal]-NH2
modifications: staple 6-10; also: coupled to biotin (site not given here)
notes: also called biotinylated WX-024; BCL9 peptide labeled with biotin
[5]
  Kd: 4.21 nM
